Test results published in patent US20190049430.

Assays:
[1] = biological target: T1, FRET peptide MCA-ATDHGSES-Lys DNP (no RA motif)
T1 chain: ATDHGSES

[2] = biological target: T2, OPA1 FRET substrate MCA-AFRATDHG-DNP
T2 chain: AFRATDHG

B1: Metalloendopeptidase OMA1 (OMA1), endogenous enzyme in normal rat kidney (NRK-52E) cell lysate (protein)
chain: AAPVPLLMLILKPVQKLLAIIVGRGIRKWWQALPPDKKALFKDSVKRNKWRLLLGLSAFGLLFVVFYFTHLEVSPVTGRSKLLLVGKEHFRLLSDLEYEVWMEEFKNDLLPEEDPRYLTVKKVVYHLTQCNQDVPGVSEINWVVHVVHSPKVNAFVLPNGQVFVFTGLLNSVTDMHQLSFLLGHEIAHAVLGHAAEKASLVHLLDFLGMIFLTMIWAICPRDSLAVLGQWIQSKLQEYMFDRPYSRTLEAEADKIGLQLAAKACVDVRASSVFWQQMEFSESLHGYPKLPEWLSTHPSHGNRAEYLDRLIPQALKLREVCNCPPLSGPDPRLLFRLTVKHLLEDSEKEDLNITVKKQKPDALPIQKQEQIPLTYALGKRTAG
Question: For B1, which “OMA1 Activity (average slope over 30 min compared to AFRATDHG substrate)” value [1] is on record?
Answer: 2.71%

Question: What about the “OMA1 Activity (average slope over 30 min compared to AFRATDHG substrate)” value [2] of the same protein?
Answer: 100%
